Consider 75 variants from publication PMC12102759 (2025).

To fix the notation:
B1: RNF115 peptide 67-82 (E3 ubiquitin-protein ligase RNF115), 16-mer library wild type / MDM2 SWIB (MDM2 SWIB/MDM2 domain, residues 17-125) (parent complex)
chain 1: TTTHFAELWGHLDHTM
chain 2: SQIPASEQETLVRPKPLLLKLLKSVGAQKDTYTMKEVLFYLGQYIMTKRLYDEKQQHIVYCSNDLLGDLFGVPSFSVKEHRKIYTMIYRNLVVVNQQESSDSGTSVSEN
B2: PEX5 peptide 110-125 (Peroxisomal targeting signal 1 receptor), 16-mer library wild type / PEX14 Pex14 (PEX14 PEX14, residues 16-84) (parent complex)
chain 1: ADLALSENWAQEFLAA
chain 2: TPGSENVLPREPLIATAVKFLQNSRVRQSPLATRRAFLKKKGLTDEEIDMAFQQSGTAADEPSSLGPAT

In one assay the parent is B1. In words: proteomic peptide phage display deep mutational scan (ProP-PD DMS): M13 P8 16-mer library selected against immobilised GST-tagged bait for four days (rounds), NGS of the eluted pools per day and pseudo-replica; bait immobilised on MaxiSorp plates (10 µg), library pre-cleared on GST, 2 h binding at 4 °C, five washes; one round per day, days 1-4; value from days 2 and 3.
On to chain 1 T15L, for which the screen value is 7.38e-05 average fractional NGS count over selection days 2 and 3 (reads of this peptide / all reads for the bait, averaged over ….
Still for that read-out and setting: in the case of chain 1 T15Y it was 0.00205 average fractional NGS count over selection days 2 and 3 (reads of this peptide / all reads for the bait, averaged over …; in that of chain 1 T15G, 0.0009 average fractional NGS count over selection days 2 and 3 (reads of this peptide / all reads for the bait, averaged over ….
The same measure, in the same setting: in the case of chain 1 T15M it was 0.00385 average fractional NGS count over selection days 2 and 3 (reads of this peptide / all reads for the bait, averaged over …; in that of chain 1 T15W, 0.00561 average fractional NGS count over selection days 2 and 3 (reads of this peptide / all reads for the bait, averaged over ….
Still for that read-out and setting: to chain 1 T15H belongs 0.000116 average fractional NGS count over selection days 2 and 3 (reads of this peptide / all reads for the bait, averaged over ….
Take chain 1 L8H: the screen value was 0.000131 average fractional NGS count over selection days 2 and 3 (reads of this peptide / all reads for the bait, averaged over ….
Turning to chain 1 L8F, the screen value is 0.000568 average fractional NGS count over selection days 2 and 3 (reads of this peptide / all reads for the bait, averaged over ….
Still for that read-out and setting: in the case of chain 1 T2M it was 0.000321 average fractional NGS count over selection days 2 and 3 (reads of this peptide / all reads for the bait, averaged over …; in that of chain 1 T2L, 0.000556 average fractional NGS count over selection days 2 and 3 (reads of this peptide / all reads for the bait, averaged over …; in that of chain 1 T2D, 0.00164 average fractional NGS count over selection days 2 and 3 (reads of this peptide / all reads for the bait, averaged over ….
The same measure, in the same setting: to chain 1 A6S belongs 0.000754 average fractional NGS count over selection days 2 and 3 (reads of this peptide / all reads for the bait, averaged over ….
The same measure, in the same setting: in the case of chain 1 A6Q it was 0.000266 average fractional NGS count over selection days 2 and 3 (reads of this peptide / all reads for the bait, averaged over ….
chain 1 A6W: the screen value is 0.000676 average fractional NGS count over selection days 2 and 3 (reads of this peptide / all reads for the bait, averaged over ….
As to chain 1 A6H, the screen value was 0.00017 average fractional NGS count over selection days 2 and 3 (reads of this peptide / all reads for the bait, averaged over ….
The same measure, in the same setting: in the case of chain 1 E7D it was 0.000661 average fractional NGS count over selection days 2 and 3 (reads of this peptide / all reads for the bait, averaged over …; in that of chain 1 F5Y, 0.0001 average fractional NGS count over selection days 2 and 3 (reads of this peptide / all reads for the bait, averaged over …; in that of chain 1 F5S, 0.000118 average fractional NGS count over selection days 2 and 3 (reads of this peptide / all reads for the bait, averaged over ….
Same read-out and setting: to chain 1 F5Q belongs 0.00091 average fractional NGS count over selection days 2 and 3 (reads of this peptide / all reads for the bait, averaged over ….
For the variant chain 1 H14Y, the screen value was 0.00813 average fractional NGS count over selection days 2 and 3 (reads of this peptide / all reads for the bait, averaged over ….
Same read-out and setting: in the case of chain 1 H14S it was 0.00046 average fractional NGS count over selection days 2 and 3 (reads of this peptide / all reads for the bait, averaged over ….
As to chain 1 H14A, the screen value was 0.00138 average fractional NGS count over selection days 2 and 3 (reads of this peptide / all reads for the bait, averaged over ….
Still for that read-out and setting: in the case of chain 1 H14E it was 9.03e-05 average fractional NGS count over selection days 2 and 3 (reads of this peptide / all reads for the bait, averaged over ….
The same measure, in the same setting: to chain 1 D13W belongs 0.000615 average fractional NGS count over selection days 2 and 3 (reads of this peptide / all reads for the bait, averaged over …; to chain 1 D13M, 0.00561 average fractional NGS count over selection days 2 and 3 (reads of this peptide / all reads for the bait, averaged over ….
In the case of chain 1 D13P, the screen value was 0.00074 average fractional NGS count over selection days 2 and 3 (reads of this peptide / all reads for the bait, averaged over ….
Still for that read-out and setting: in the case of chain 1 D13T it was 0.0095 average fractional NGS count over selection days 2 and 3 (reads of this peptide / all reads for the bait, averaged over …; in that of chain 1 D13Q, 0.00218 average fractional NGS count over selection days 2 and 3 (reads of this peptide / all reads for the bait, averaged over …; in that of chain 1 D13R, 0.000392 average fractional NGS count over selection days 2 and 3 (reads of this peptide / all reads for the bait, averaged over ….
The same measure, in the same setting: to chain 1 D13G belongs 0.00549 average fractional NGS count over selection days 2 and 3 (reads of this peptide / all reads for the bait, averaged over …; to chain 1 D13V, 0.0143 average fractional NGS count over selection days 2 and 3 (reads of this peptide / all reads for the bait, averaged over ….
For chain 1 T3L, the screen value is 0.00187 average fractional NGS count over selection days 2 and 3 (reads of this peptide / all reads for the bait, averaged over ….
On to chain 1 T3I, for which the screen value is 0.00069 average fractional NGS count over selection days 2 and 3 (reads of this peptide / all reads for the bait, averaged over ….
With chain 1 T3D, the screen value was 0.000232 average fractional NGS count over selection days 2 and 3 (reads of this peptide / all reads for the bait, averaged over ….
Consider chain 1 T3Q, for which the screen value was 0.000196 average fractional NGS count over selection days 2 and 3 (reads of this peptide / all reads for the bait, averaged over ….
Still for that read-out and setting: in the case of chain 1 T3A it was 0.000681 average fractional NGS count over selection days 2 and 3 (reads of this peptide / all reads for the bait, averaged over …; in that of chain 1 H4G, 0.00192 average fractional NGS count over selection days 2 and 3 (reads of this peptide / all reads for the bait, averaged over ….
chain 1 H4A: the screen value was 0.000176 average fractional NGS count over selection days 2 and 3 (reads of this peptide / all reads for the bait, averaged over ….
Regarding chain 1 H4I, the screen value was 0.000874 average fractional NGS count over selection days 2 and 3 (reads of this peptide / all reads for the bait, averaged over ….
On the same count and under the same terms, to chain 1 H4D belongs 0.000343 average fractional NGS count over selection days 2 and 3 (reads of this peptide / all reads for the bait, averaged over …; to chain 1 H4F, 0.000236 average fractional NGS count over selection days 2 and 3 (reads of this peptide / all reads for the bait, averaged over ….
The same measure, in the same setting: to chain 1 G10A belongs 0.00678 average fractional NGS count over selection days 2 and 3 (reads of this peptide / all reads for the bait, averaged over …; to chain 1 M16T, 0.00044 average fractional NGS count over selection days 2 and 3 (reads of this peptide / all reads for the bait, averaged over ….
Same read-out and setting: to chain 1 M16W belongs 0.000718 average fractional NGS count over selection days 2 and 3 (reads of this peptide / all reads for the bait, averaged over ….
For the variant chain 1 H11N, the screen value is 0.000176 average fractional NGS count over selection days 2 and 3 (reads of this peptide / all reads for the bait, averaged over ….
On the same count and under the same terms, in the case of chain 1 H11D it was 0.00024 average fractional NGS count over selection days 2 and 3 (reads of this peptide / all reads for the bait, averaged over ….
As to chain 1 H11G, the screen value was 0.000565 average fractional NGS count over selection days 2 and 3 (reads of this peptide / all reads for the bait, averaged over ….
Still for that read-out and setting: to chain 1 H11K belongs 0.000921 average fractional NGS count over selection days 2 and 3 (reads of this peptide / all reads for the bait, averaged over …; to chain 1 H11V, 0.00167 average fractional NGS count over selection days 2 and 3 (reads of this peptide / all reads for the bait, averaged over ….
Same read-out and setting: in the case of chain 1 H11S it was 0.000392 average fractional NGS count over selection days 2 and 3 (reads of this peptide / all reads for the bait, averaged over …; in that of chain 1 H11T, 0.00102 average fractional NGS count over selection days 2 and 3 (reads of this peptide / all reads for the bait, averaged over ….
Still for that read-out and setting: in the case of chain 1 H11M it was 0.00257 average fractional NGS count over selection days 2 and 3 (reads of this peptide / all reads for the bait, averaged over ….

Variants of B2 are the subject of a further assay. Described as above.
As for chain 1 S6F, the screen value is 0.00174 average fractional NGS count over selection days 2 and 3 (reads of this peptide / all reads for the bait, averaged over ….
Same read-out and setting: to chain 1 S6E belongs 0.00164 average fractional NGS count over selection days 2 and 3 (reads of this peptide / all reads for the bait, averaged over ….
Same read-out and setting: to chain 1 S6L belongs 0.00108 average fractional NGS count over selection days 2 and 3 (reads of this peptide / all reads for the bait, averaged over ….
Consider chain 1 S6H, for which the screen value is 0.00186 average fractional NGS count over selection days 2 and 3 (reads of this peptide / all reads for the bait, averaged over ….
The same measure, in the same setting: to chain 1 S6R belongs 0.00161 average fractional NGS count over selection days 2 and 3 (reads of this peptide / all reads for the bait, averaged over …; to chain 1 S6N, 0.000624 average fractional NGS count over selection days 2 and 3 (reads of this peptide / all reads for the bait, averaged over …; to chain 1 S6G, 0.000749 average fractional NGS count over selection days 2 and 3 (reads of this peptide / all reads for the bait, averaged over ….
Same read-out and setting: to chain 1 A15L belongs 0.00105 average fractional NGS count over selection days 2 and 3 (reads of this peptide / all reads for the bait, averaged over …; to chain 1 A15F, 0.000391 average fractional NGS count over selection days 2 and 3 (reads of this peptide / all reads for the bait, averaged over ….
As to chain 1 A15P, the screen value was 0.00041 average fractional NGS count over selection days 2 and 3 (reads of this peptide / all reads for the bait, averaged over ….
As to chain 1 A15V, the screen value was 0.000924 average fractional NGS count over selection days 2 and 3 (reads of this peptide / all reads for the bait, averaged over ….
The same measure, in the same setting: to chain 1 A15H belongs 0.000537 average fractional NGS count over selection days 2 and 3 (reads of this peptide / all reads for the bait, averaged over …; to chain 1 A15M, 0.000398 average fractional NGS count over selection days 2 and 3 (reads of this peptide / all reads for the bait, averaged over …; to chain 1 A10G, 0.00143 average fractional NGS count over selection days 2 and 3 (reads of this peptide / all reads for the bait, averaged over ….
For chain 1 A10T, the screen value was 0.000469 average fractional NGS count over selection days 2 and 3 (reads of this peptide / all reads for the bait, averaged over ….
As to chain 1 A10H, the screen value was 0.013 average fractional NGS count over selection days 2 and 3 (reads of this peptide / all reads for the bait, averaged over ….
The same measure, in the same setting: to chain 1 A10E belongs 0.000658 average fractional NGS count over selection days 2 and 3 (reads of this peptide / all reads for the bait, averaged over …; to chain 1 A10R, 0.000397 average fractional NGS count over selection days 2 and 3 (reads of this peptide / all reads for the bait, averaged over …; to chain 1 A10Y, 0.0104 average fractional NGS count over selection days 2 and 3 (reads of this peptide / all reads for the bait, averaged over ….
On to chain 1 A10W, for which the screen value is 0.00181 average fractional NGS count over selection days 2 and 3 (reads of this peptide / all reads for the bait, averaged over ….
Regarding chain 1 Q11L, the screen value was 0.00081 average fractional NGS count over selection days 2 and 3 (reads of this peptide / all reads for the bait, averaged over ….
On to chain 1 Q11Y, for which the screen value was 0.000918 average fractional NGS count over selection days 2 and 3 (reads of this peptide / all reads for the bait, averaged over ….
Same read-out and setting: to chain 1 Q11H belongs 0.00141 average fractional NGS count over selection days 2 and 3 (reads of this peptide / all reads for the bait, averaged over ….
